These are literature values, as cited in article PMC9949911.

The data set addresses IL-18bp (Homo sapiens) (UniProt O95998).

IL-18bp (Homo sapiens), sequence (O95998 31-194): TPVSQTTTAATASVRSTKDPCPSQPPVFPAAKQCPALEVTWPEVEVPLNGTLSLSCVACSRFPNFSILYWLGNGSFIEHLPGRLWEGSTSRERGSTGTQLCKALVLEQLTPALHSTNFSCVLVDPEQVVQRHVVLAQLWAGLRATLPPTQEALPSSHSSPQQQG
IL-18, sequence (Q14116 37-193): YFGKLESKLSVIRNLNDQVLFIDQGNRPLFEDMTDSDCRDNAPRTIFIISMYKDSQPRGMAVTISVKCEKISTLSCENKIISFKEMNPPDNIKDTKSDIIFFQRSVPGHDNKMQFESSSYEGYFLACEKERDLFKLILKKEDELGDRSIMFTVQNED

With IL-18 (from UniProt Q14116), the Kd is 0.05 nM.
